Source: publication PMC3260246

Columns and labels:
Assay in all cases: membrane filtration equilibrium binding (Scatchard plot); 12.5 µM wild-type or mutant small heat shock protein incubated 1 hr at 60°C with 2–18 µM γ-crystallin in 50 mM phosphate buffer, 100 mM NaCl, pH 7.2; unbound substrate separated through a 100-kDa cut off Microcon filter; n per subunit of chaperone
[1] = biological target: Hsp27 R12A mutant (human) (UniProt P04792)
[2] = biological target: αB-crystallin R12A mutant (human) (UniProt P02511)
Sequence of αB-crystallin R12A mutant (human) (P02511 whole entry R12A): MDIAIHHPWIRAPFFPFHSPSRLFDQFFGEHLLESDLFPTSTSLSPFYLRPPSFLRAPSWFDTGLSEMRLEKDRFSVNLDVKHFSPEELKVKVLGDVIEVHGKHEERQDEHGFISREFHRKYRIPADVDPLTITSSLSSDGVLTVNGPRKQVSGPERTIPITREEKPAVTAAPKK

[3] = biological target: wild-type human αB-crystallin (human) (UniProt P02511)
Sequence of wild-type human αB-crystallin (human) (P02511 whole entry): as the sequence (P02511 whole entry R12A) above, with A12R counted along it

[4] = biological target: wild-type human Hsp27 (human) (UniProt P04792)
Sequence of wild-type human Hsp27 (human) (P04792 whole entry): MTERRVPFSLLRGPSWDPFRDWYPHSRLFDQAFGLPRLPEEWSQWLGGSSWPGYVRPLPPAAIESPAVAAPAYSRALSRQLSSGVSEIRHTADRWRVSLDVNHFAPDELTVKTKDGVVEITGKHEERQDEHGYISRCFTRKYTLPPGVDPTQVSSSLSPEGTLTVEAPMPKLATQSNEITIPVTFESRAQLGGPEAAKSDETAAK

[5] = biological target: wild-type human αA-crystallin (human) (UniProt P02489)
Sequence of wild-type human αA-crystallin (human) (P02489 whole entry): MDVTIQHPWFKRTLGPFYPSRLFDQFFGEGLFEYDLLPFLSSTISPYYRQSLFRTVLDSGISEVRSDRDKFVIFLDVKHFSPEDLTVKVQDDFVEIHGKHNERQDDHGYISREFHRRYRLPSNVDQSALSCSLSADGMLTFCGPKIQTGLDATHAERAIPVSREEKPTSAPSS

Sequence of bovine γ-crystallin (P02526 whole entry): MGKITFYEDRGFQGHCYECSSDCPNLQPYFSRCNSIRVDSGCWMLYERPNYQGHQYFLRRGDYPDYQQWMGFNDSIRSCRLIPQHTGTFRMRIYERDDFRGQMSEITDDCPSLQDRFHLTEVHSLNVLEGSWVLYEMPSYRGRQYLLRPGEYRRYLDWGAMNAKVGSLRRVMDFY
Sequence of Hsp27 R12A mutant (human) (P04792 whole entry R12A): as the sequence (P04792 whole entry) above, with R12A counted along it

Substance “bovine γ-crystallin (from UniProt P02526 1-175) (natural protein)” has a Kd [1] of 5.79 µM, a stoichiometry N [1] of 2.87 and a Kd [2] of 3.24 µM. It also gave a stoichiometry N [2] of 1.68, a Kd [3] of 2.84 µM and a stoichiometry N [3] of 2.34. It also gave a Kd [4] of 5.91 µM, a stoichiometry N [4] of 2.9 and a stoichiometry N [5] of 3.61.
